Reference: patent US7544481 (REGENTS OF THE UNIVERSITY OF MICHIGAN, dated 2009)

B1: GSTCD40T (GST fused to the native CD40 cytoplasmic domain) (other, human, UniProt P25942 216-277, looked up)
chain: KKVAKKPTNKAPHPKQEPQEINFPDDLPGSNTAAPVQETLHGCQPVTQEDGKESRISVQERQ
notes: range 216-279; Immobilized on glutathione-agarose beads; also called native CD40 (GSTCD40T); not shown: glutathione S-transferase of the vector pGSTag
B2: cytoplasmic domain of the p55 TNF receptor (amino acids 206-426) fused to the DNA-binding domain of GAL4 (other, UniProt P04386 1-147, looked up)
chain: MKLLSSIEQACDICRLKKLKCSKEKPKCAKCLKNNWECRYSPKTKRSPLTRAHLTEVESRLERLEQLFLLIFPREDLDMILKMDSLQDIKALLTGLFVQDNVNKDAVTDRLASVETDMPLTLRQHRISATSSSEESSNKGQRQLTVSRYQRWKSKLYSIVCGKSTPEKEGELEGTTTKPLAPNPSFSPTPGFTPTLGFSPVPSSTFTSSSTYTPGDCPNFAAPRREVAPPYQGADPILATALASDPIPNPLQKWEDSAHKPQSLDTDDPATLYAVVENVPPLRWKEFVRRLGLSDHEIDRLELQNGRCLREAQYSMLATWRRRTPRREATLELLGRVLRDMDLLGCLEDIEEALCGPAALPPAPSLLR
notes: The numbering probably counts on the mature receptor; also called pTNFR
B3: CD40bp fused to the activation domain of GAL4 (other, not shown: large carriers)
chain: MESSKKMDSPGALQTNPPLKLHTDRSAGTPVFVPEQGGYKEKFVKTVEDKYKCEKCHLVLCSPKQTECGHRFCESCMAALLSSSSPKCTACQESIVKDKVFKDNCCKREILALQIYCRNESRGCAEQLMLGHLVHLKNDCHFEELPCVRPDCKEKVLRKDLRDHVEKACKYREATCSHCKSQVPMIALQKHEDTDCPCVVVSCPHKCSVQTLLRSELSAHLSECVNAPSTCSFKRYGCVFQGTNQQIKAHEASSAVQHVNLLKEWSNSLEKKVSLLQNESVEKNKSIQSLHNQICSFEIEIERQKEMLRNNESKILHLQRVIDSQAEKLKELDKEIRPFRQNWEEADSMKSSVESLQNRVTELESVDKSAGQVARNTGLLESQLSRHDQMLSVHDIRLADMDLGFQVLETASYNGVLIWKIRDYKRRKQEAVMGKTLSLYSQPFYTGYFGYKMCARVYLNGDGMGKGTHLSLFFVIMRGEYDALLPWPFKQKVTLMLMDQGSSRRHLGDAFKPDPNSSSFKKPTGEMNIASGCPVFVAQTVLENGTYIKDDTIFIKVIVDTSDLPDP
notes: Prey from a human B-cell cDNA library; also called CD40bp (yeast prey, pACT)

Columns and labels:
[1] = target: [35S]methionine-labeled luciferase protein (UniProt P08659 1-550 = luciferase, limits assumed, [35S]methionine label); test: GST pull-down of in vitro translated 35S-labeled protein, autoradiography
[35S]methionine-labeled luciferase protein, sequence (P08659 whole entry, the tested form may be a part): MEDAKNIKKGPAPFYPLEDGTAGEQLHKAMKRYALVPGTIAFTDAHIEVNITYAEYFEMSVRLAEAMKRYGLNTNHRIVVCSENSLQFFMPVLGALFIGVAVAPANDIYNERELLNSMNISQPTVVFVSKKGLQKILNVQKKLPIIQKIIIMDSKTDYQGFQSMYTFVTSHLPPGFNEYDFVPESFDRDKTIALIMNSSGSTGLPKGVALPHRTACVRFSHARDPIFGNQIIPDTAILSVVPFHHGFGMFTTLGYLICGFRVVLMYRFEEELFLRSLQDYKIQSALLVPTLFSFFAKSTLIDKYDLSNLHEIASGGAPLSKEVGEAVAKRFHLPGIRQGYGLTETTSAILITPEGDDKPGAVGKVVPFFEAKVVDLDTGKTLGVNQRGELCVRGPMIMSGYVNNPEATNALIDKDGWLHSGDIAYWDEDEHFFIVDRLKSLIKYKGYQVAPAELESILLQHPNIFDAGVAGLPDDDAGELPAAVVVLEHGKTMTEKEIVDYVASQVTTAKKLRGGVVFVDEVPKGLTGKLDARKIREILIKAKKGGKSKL
Protocol: GST Fusion Protein Expression and In Vitro Binding Assay—Native (CD40T) and mutant (CD40A) CD40 sequences used in the construction of the yeast bait vectors were excised and subcloned into the glutathione S-transferase ("GST") fusion protein vector pGSTag (as described in Ron et al. (1992) *BioTechniques* 13:866-869) and transformed into the *Escherichia coli* strain BL21 […] pLysS (as described in Studier et al. (1991) *J. Mol. Bio.* 219:37-44). GST and GST fusion proteins were prepared using published procedures of Studier et al. (1991) supra, and the recombinant proteins were immobilized onto glutathione-agarose beads at a concentration of about 8 mg/ml (as described in Harper et al. (1993) supra).
Figure 2: FIGS. 2A and 2B show the interaction of in vitro translated CD40bp with GST fusion proteins. [^35S]Methionine-labeled CD40bp or luciferase protein as control was incubated with GST alone, GSTCD40T (native CD40 cytoplasmic domain), or GSTCD40A (mutant CD40 cytoplasmic domain $Thr^234 \rightarrow Ala$). Following incubation and washing, GST beads were boiled in SDS-sample buffer and resolved on a 10% acrylamide gel, and bound protein was visualized by autoradiography.

[2] = target: B3; test: yeast two-hybrid cotransformation, beta-galactosidase filter assay
Excerpt: (§1) Yeast Two-hybrid Screen—Using a modification of the method of Harper et al. (1993) *Cell* 75:805-816, a hybrid gene encoding the GAL4 DNA-binding domain (amino acids 1-147), hemagglutinin ("HA") epitope tag, and CD40 cytoplasmic region (amino acids 216-279) was constructed in the yeast bait vector pAS1CYH2. This construct was designated GAL4CD40, and expression of the fusion protein was confirmed by anti-HA immunoblotting. This bait plasmid was cotransformed with a human B-cell cDNA expression library (prey) fused to the activation domain of GAL4 in the pACT plasmid. Interaction between bait- and prey-encoded genes in the Y190 yeast strain reconstitutes GAL4 as an active transcriptional complex, allowing growth in the absence of histidine and activation of the β-galactosidase reporter gene. Thirty-six of the 10^6 transformants screened grew in the absence of histidine and had detectable β-galactosidase staining within 10 minutes of incubation with the chromogenic substrate 5-bromo-4-chloro-3-indolyl β-D-galactoside. […] Cotransformation assays were repeated in the yeast Y190 strain, where CD40bp fused to the activation domain of GAL4 was cotransformed with native CD40 (pCD40T) or the indicated heterologous baits expressed as fusions with the DNA-binding domain of GAL4. […]

[3] = target: yeast Ser-Thr kinase SNF1 fused to the DNA-binding domain of GAL4 (yeast, UniProt P04386 1-147; P06782 1-633, limits assumed); test: as above
Excerpt: as §1

## B1
[1]
  binding result: no binding

## B2
[2]
  binding result: no binding

## B3
[3]
  binding result: no binding
